Reference: paper doi:10.1101/2020.09.10.288878

Target: taxol-stabilized microtubules polymerised from porcine brain tubulin (porcine) (UniProt P02550)
Assay: co-sedimentation

| Substance | decrease in the pellet fraction against MBP-MTB-WT [%] |
| --- | --- |
| MBP-MTB-12Q (MBP-tagged Sli15 microtubule binding domain, twelve basic SAH residues to glutamine) (domain or fragment) | 20 |
| MBP-MTB-ΔSAH (MBP-tagged Sli15 microtubule binding domain with the SAH region deleted) (domain or fragment) | 20 |
